Source: PMC4460036

Molecular target: Fibrillar-type I Horm collagen from equine tendon (equine)
Assay: not stated; apparent constants (KDapp) of recombinant soluble GPVI for collagen; method and conditions not told

Substance | Kd [nM]
GPVI-Fc (extracellular domain of human GPVI fused to the Fc domain of human Igs) (from UniProt Q9HCN6 21-267) (Fc fusion) | 5
GPVI-His (extracellular domain of human GPVI fused to a poly-His tag) (from UniProt Q9HCN6 21-267) (domain or fragment) | 270
